Blank lines part the entries; values can stand above or below the binder they belong to.
Legend:
[1] = target: T1, recombinant human preformed α-Synuclein fibrils (human, UniProt P37840 1-140); assay: cell-based or functional assay
[2] = target: recombinant mouse preformed α-Synuclein fibrils (mouse, UniProt O55042 1-140); assay: cell-based or functional assay
[3] = target: human α-Synuclein (form not stated) (human, UniProt P37840 1-140); assay: direct ELISA; human αSyn against mouse αSyn as reference
[4] = target: T1, recombinant human preformed α-Synuclein …; assay: sandwich ELISA, mAb coated, MJF-R1 reporter; human PFFs against human monomer as reference
Experimental: FIG. 1A is a pair of graphs depicting the affinity of mAb Syn9063.26.22 for human monomeric (top) and fibrillar (PFF) (bottom) α-Syn measured by sandwich ELISA. 384-well plates were coated with 0.3 μg of the indicated mAb. After blocking, these were incubated with various concentrations of α-Syn monomer or PFFs (expressed as monomer equivalent concentration) as indicated. MJF-R1 was used as a reporter antibody to determine affinity for each form of α-Syn. FIG. 1B is a pair of graphs depicting the affinity of mAb Syn9048.04.07 for human monomeric (top) and fibrillar (PFF) (bottom) α-Syn measured by sandwich ELISA. 384-well plates were coated with 0.3 μg of the indicated mAb. After blocking, these were incubated with various concentrations of α-Syn monomer or PFFs (expressed as monomer equivalent concentration) as indicated. MJF-R1 was used as a reporter antibody to determine affinity for each form of α-Syn. FIG. 1C is a pair of graphs depicting the affinity of mAb Syn9068.13.01 for human monomeric (top) and fibrillar (PFF) (bottom) α-Syn measured by sandwich ELISA. […] After blocking, these were incubated with various concentrations of α-Syn monomer or PFFs (expressed as monomer equivalent concentration) as indicated. […]
The affinity of three mAbs from the 9000 series for human monomeric and fibrillar (PFF) α-Syn was measured by sandwich ELISA. […]

Inhibition in neuron assay (Hu PFFs) [1]: 80%
Inhibition in neuron assay (Ms PFFs) [2]: 50%
Recognition of Hu vs. Ms αSyn (fold) [3]: 1.1 fold
Selective binding to PFFs (fold over monomer) [4]: 100 fold
B1: Syn9063.26.22 (antibody, IgG2b, V domains shown)
VH: QVQLKQSGPGLVQPSQSQSLTCTVSGFSLTSYGVHWVRQPLGKGLEWLGVIWSGGSTDYNAAFISRLSIRKDNSKSQVFFKMNSLQADDTAIYYCARTFTTSTSAWFAYWGQGTLVTVSA
VL: QIVLTQSPAIMSASPGEKVTMTCSASSSVSYMYWYQQKPGSSPRLLIYDTSKLASGVPVRFSGSGSGTSYSLTISRMEAEDAATYYCQQWRSYPPTFGAGTKLELK
notes: also called mAb Syn9063.26.22; MHC978

Inhibition in neuron assay (Hu PFFs) [1]: > 95%
Inhibition in neuron assay (Ms PFFs) [2]: > 95%
Recognition of Hu vs. Ms αSyn (fold) [3]: 1.4 fold
Selective binding to PFFs (fold over monomer) [4]: 30 fold
B2: Syn9048.04.07 (antibody, IgG1, V domains shown)
VH: QVQLQQSGPELVKPGASVRISCKASGYTFTTFYLHWVKQRPGQGLEWIGWIYPVNVKIKYSERFKGKATLTADKSSSTAYMQLGSLTSEDSAVYFCVRGGRGLDYWGQGTTLTVSS
VL: NIMMTQSPSSLAVSAGEKVTMSCKSSQSVLYSSNQKNYLAWYQQKPGQSPKMLIYWASFRESGVPDRFTGSGSGTDFTLTISSVQAEDLAVYYCHQYLSLFTFGSGTKLEIK
notes: also called mAb Syn9048.04.07; MHC992

Inhibition in neuron assay (Hu PFFs) [1]: 85%
Inhibition in neuron assay (Ms PFFs) [2]: ~90%
Recognition of Hu vs. Ms αSyn (fold) [3]: 1 fold
B3: Syn9068.13.01 (antibody, IgG1, V domains shown)
VH: EVHLVESGGGLVQPKGSLKLSCAASGFTFNTYAMHWVRQAPGKGLEWVARIRNKSNNYATYYADSVKDRFTISRDDSQSMLFLQMDNLKTEDTAIYYCVRGGLSPFDYWGQGTTLTVSS
VL: QIVLTQSPAIMSASPGEKVTMTCSASSSVTYMHWYQQKSGTSPKRWIYDTSKLASGVPARFSGSGSGTSYSLTISSMEAEDAATYYCQQWSSNPPTFGGGTKLEIR
notes: also called mAb Syn9068.13.01; MHC993
